Assay results taken from patent publication US20160312212A1 (ROCHE SEQUENCING SOLUTIONS, published 2016).
Where no end group is shown, it is not given here. The star is where a group is joined. Biotin = O=C1N[C@H]2[C@H](CS[C@H]2CCCCC(=O)*)N1

Target: Thrombin (UniProt P00734 328-622)
Experiment: SPR (Biacore X100), multiple-cycle kinetics; biotinylated peptide on streptavidin chip, thrombin 0 to 50 nM as analyte
Method: Two peptides were further prepared (synthesized and purified by Peptide 2.0) with the following sequences: a) Biotin—[…] GCG (SEQ ID NO:367) and b) Biotin—[…] (SEQ ID NO:368). The binding affinities of each peptide towards thrombin were tested on a Biacore X100 system.
In brief, 50 ul of 100 ug/ml of streptavidin (in 10 mM NaAc, 0.1 mM EDTA, 1 mM NaCl, 1 mM DTT pH 4.6) was immobilized onto a sensor chip CM5 that was pre-activated with NHS/EDC at a flow rate of 5 μl/min. After ethanolamine deactivation, biotinylated peptides (10 ng/ml) were injected and captured. Following the standard protocol for multiple-cycle kinetics, a series of injections of thrombin were then performed at 0 nM, 3.125 nM, 6.25 nM, 12.5 nM, 25 nM and 50 nM. After each injection, the sensor surface was regenerated for 2 min with 10 mM Glycine-HCl, pH 1.7 (from GE). The sensogram was recorded (see FIG. 5) and kinetic constants were derived by global fitting to a 1:1 Langmuir binding model using the BIAcore X100 Evaluation Software.

fold change in KD against the linear peptide without cow antibody scaffold sequences (SEQ ID NO:368): > 40 fold
B1: Biotin-GCTSVHQETKKYQSRDPGRLIFQSSYTYNYEHVDVWGCG (designed binder)
peptide: Biotin-GCTSVHQETKKYQSRDPGRLIFQSSYTYNYEHVDVWGCG
modifications: cysteine pairing not given here
notes: Synthetic peptide (Peptide 2.0), captured on a streptavidin CM5 chip; also called peptide a)
